# Tests used:
# [1] = biological target: Tissue factor (residues 1–209), soluble, immobilised on CNBr-activated sepharose-4B; experiment: radioligand binding; as a1 but in human serum, 0 hour (no incubation in serum before the sepharose was added); binding 1 h at room temperature; median of 3
# [2] = biological target: Tissue factor (residues 1–209), soluble, immobilised on CNBr-activated sepharose-4B; experiment: radioligand binding; as a1 but after 1 hour of incubation of 111In-DTPA-rFVIIa in 270 uL human serum at room temperature before the sepharose was added; binding 1 h at room temperature; median of 3
# [3] = biological target: Tissue factor (residues 1–209), soluble, immobilised on CNBr-activated sepharose-4B; experiment: radioligand binding; 111In-DTPA-rFVIIa incubated 1 h at room temperature with TF (1–209)-sepharose (50% suspension) in assay buffer (10 mM glycyl-glycine, 150 mM NaCl, 10 mM CaCl2, 0.1% BSA, pH 7.5); beads and filtrate separated in Spin-X filter tubes and counted; median of 3 labellings
substance,measurement,setting,value
"111In-DTPA-rFVIIa (111Indium-labelled, DTPA-conjugated recombinant activated coagulation factor VII) (enzyme)",binding efficiency (%),[1],39%
same,binding efficiency (%),[2],36%
same,binding efficiency (%),[3],48%
